Experimental data: the Immune Epitope Database (IEDB)

These sequences were tested against HLA-A*02:01 (assay: IEDB peptide-MHC binding, purified MHC/direct/fluorescence; filed as Kd, often an IC50 or EC50 that approximates it; ≥ and ≤ were set here for values at or beyond the usual limits of such assays). Details: source organism: Mycobacterium tuberculosis H37Rv.

AIYDTMQYV and ALDEGLLPV cannot be ordered by Kd: at most 1 nM for the first, at most 1 nM for the second.

Going from ALLGGLRPV to AMAGSIDLL, the Kd rises from at most 1 nM to 4 nM.

First: GMFANRWII
Second: HLDDVGFLV
The Kd of the first is higher: 27 nM for the first, at most 1 nM for the second.

Going from KLQERLAKL to LLYDGSFAV, the Kd falls from 18 nM to at most 1 nM.

First: SLIDLLHKI
Second: SLRNWIATL
The Kd of the first is lower: at most 1 nM for the first, 66 nM for the second.

Going from SLWKDGAPL to WLYPGAQNL, the Kd falls from 5 nM to at most 1 nM. The second binds more tightly here.

YLLADTFTV and YLPDPTVGV cannot be ordered by Kd: at most 1 nM for the first, at most 1 nM for the second.

Sequence YVYPDNLPV has a Kd of 2 nM.
